Target: T1, cdkn3_human CDKN3 (UniProt Q16667)
T1 sequence: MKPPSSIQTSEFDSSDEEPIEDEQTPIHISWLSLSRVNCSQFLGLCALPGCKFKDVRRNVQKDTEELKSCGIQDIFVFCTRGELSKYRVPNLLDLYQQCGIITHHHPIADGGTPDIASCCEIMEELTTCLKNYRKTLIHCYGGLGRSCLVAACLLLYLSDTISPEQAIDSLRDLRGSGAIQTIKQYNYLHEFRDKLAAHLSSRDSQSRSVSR

Substance: Cyclin-dependent kinase 2 (Homo sapiens) (from UniProt P24941) K237V
- effect of a mutation on the interaction: disrupting interaction
